According to PMC6844113:

Substrate: Nc1ncnc2c1ncn2[C@@H]1O[C@H](COP(=O)(O)OP(=O)(O)OP(=O)(O)O)[C@@H](O)[C@H]1O
Assay: purified protein
Type: biochemical, Homo sapiens
Details: Mg2+

B1: human DNA topoisomerase IIα (Homo sapiens) (protein)
chain: MEVSPLQPVNENMQVNKIKKNEDAKKRLSVERIYQKKTQLEHILLRPDTYIGSVELVTQQMWVYDEDVGINYREVTFVPGLYKIFDEILVNAADNKQRDPKMSCIRVTIDPENNLISIWNNGKGIPVVEHKVEKMYVPALIFGQLLTSSNYDDDEKKVTGGRNGYGAKLCNIFSTKFTVETASREYKKMFKQTWMDNMGRAGEMELKPFNGEDYTCITFQPDLSKFKMQSLDKDIVALMVRRAYDIAGSTKDVKVFLNGNKLPVKGFRSYVDMYLKDKLDETGNSLKVIHEQVNHRWEVCLTMSEKGFQQISFVNSIATSKGGRHVDYVADQIVTKLVDVVKKKNKGGVAVKAHQVKNHMWIFVNALIENPTFDSQTKENMTLQPKSFGSTCQLSEKFIKAAIGCGIVESILNWVKFKAQVQLNKKCSAVKHNRIKGIPKLDDANDAGGRNSTECTLILTEGDSAKTLAVSGLGVVGRDKYGVFPLRGKILNVREASHKQIMENAEINNIIKIVGLQYKKNYEDEDSLKTLRYGKIMIMTDQDQDGSHIKGLLINFIHHNWPSLLRHRFLEEFITPIVKVSKNKQEMAFYSLPEFEEWKSSTPNHKKWKVKYYKGLGTSTSKEAKEYFADMKRHRIQFKYSGPEDDAAISLAFSKKQIDDRKEWLTNFMEDRRQRKLLGLPEDYLYGQTTTYLTYNDFINKELILFSNSDNERSIPSMVDGLKPGQRKVLFTCFKRNDKREVKVAQLAGSVAEMSSYHHGEMSLMMTIINLAQNFVGSNNLNLLQPIGQFGTRLHGGKDSASPRYIFTMLSSLARLLFPPKDDHTLKFLYDDNQRVEPEWYIPIIPMVLINGAEGIGTGWSCKIPNFDVREIVNNIRRLMDGEEPLPMLPSYKNFKGTIEELAPNQYVISGEVAILNSTTIEISELPVRTWTQTYKEQVLEPMLNGTEKTPPLITDYREYHTDTTVKFVVKMTEEKLAEAERVGLHKVFKLQTSLTCNSMVLFDHVGCLKKYDTVLDILRDFFELRLKYYGLRKEWLLGMLGAESAKLNNQARFILEKIDGKIIIENKPKKELIKVLIQRGYDSDPVKAWKEAQQKVPDEEENEESDNEKETEKSDSVTDSGPTFNYLLDMPLWYLTKEKKDELCRLRNEKEQELDTLKRKSPSDLWKEDLATFIEELEAVEAKEKQDEQVGLPGKGGKAKGKKTQMAEVLPSPRGQRVIPRITIEMKAEAEKKNKKKIKNENTEGSPQEDGVELEGLKQRLEKKQKREPGTKTKKQTTLAFKPIKKGKKRNPWSDSESDRSSDESNFDVPPRETEPRRAATKTKFTMDLDSDEDFSDFDEKTDDEDFVPSDASPPKTKTSPKLSNKELKPQKSVVSDLEADDVKGSVPLSSSPPATHFPDETEITNPVPKKNVTVKKTAAKSQSSTSTTGAKKRAAPKGTKRDPALNSGVSQKPDPAKTKNRRKRKPSTSDDSDSNFEKIVSKAVTSKKSKGESDDFHMDFDSAVAPRAKSVRAKKPIKYLEESDEDDLF
Km: 220 ± 60 µM
